In the nanobody polyreactivity screen of Harvey et al. (2022):

Test: yeast display, Sf9 membrane polyspecificity reagent, FACS + sequencing; frameworks hold sequencing errors
Procedure, shortened: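 A nanobody's polyreactivity label depends on the gate it was sorted from. Yeast display cells were stained with 10% biotinylated, detergent-solubilized Sf9 membrane reagent for 1 hour at 4 °C, enriched on streptavidin microbeads and sorted by FACS. The low and high (top ~1%) gates were set on anti-HA fluorescence for expression and streptavidin fluorescence for reagent binding.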

**Q.** For “QVQLVESGGGLVQAGGSLRYICAASGFTFRPKVMGWYRQAHGKERELVAAISGSGGSTYYADSVKGRFTISRDNAKNTVYLQMNSLKPEDTAVYYSKDFPAFYDFGYWGQGTQVTVSS”, which “polyreactivity (PSR sort gate)” value is on record?
**A.** high polyreactivity

**Q.** For “QVQLVESGGGLVQAGGSLSISCAASGRTFPEYGMGWYRQAPGKDREFVAAISTRGGSTYYANSVKGRFTISGDNAKNTVYLQMNSLKPEDTAVYYCAKVYDRSGGDYWGQGTQVTVSS”, which “polyreactivity (PSR sort gate)” value is on record?
**A.** low polyreactivity

**Q.** For “QVQLVESGGGLVQAGGSLSLICAASGFTFLIYAMGWYRQAPGKERELVAAITWRGSGTYYADSVKGRFTISRDNAKNTVYLQMNSLKPEDTAVYYCAARTARRTYDYWGQGTQVTLSS”, which “polyreactivity (PSR sort gate)” value is on record?
**A.** low polyreactivity

**Q.** With “QVQLVESGGGLVQAGGSLSLICAASGRIFLRNDMGWYRQAPGKERELVAGISSDGSTYYADSVKGRFTISRDNAKNTVYLQMNSLKPEDTAVYYCAAERWGNPTDYQFWRPYDYWGQGTQVNVSS” as the sequence, how does the “polyreactivity (PSR sort gate)” value read?
**A.** low polyreactivity

**Q.** Which “polyreactivity (PSR sort gate)” value does the source give for “QVQLVESGGGLVQAGGSLSLICAASGSTFTENAMGWYRQAPGKERELVAVITSSDGTTYYADSVKGRFTISRDNAKNTVYLQMISLKPEDTAVSYCAADPYYFWWRYDFWGQGTQVTVSS” here?
**A.** low polyreactivity

**Q.** With “QVQLVESGGGLVQAGGSLSLRCAASGRTLDVYAMGWYRQAPGKERELVARITSGGSTNYADSVKGRFTISRDNAKNTVYLQMNSLKPEDTSVYYCNAVVYTRPYTRPRYRYDYWGQGTQVTVSS” as the sequence, how does the “polyreactivity (PSR sort gate)” value read?
**A.** high polyreactivity

**Q.** With “QVQLVESGGGLVQAGGSLSLRCAGSGRTFRTYTMGWYRQARGKERELVAAISWSGSSTYYADSVKGRVTISRDHAKNTVYLQLNSLKPEDTAVYYCAARYVSRRFLGYYYWGQGTQVTVSS” as the sequence, how does the “polyreactivity (PSR sort gate)” value read?
**A.** high polyreactivity

**Q.** For “QVQLVESGGGLVQAGGSLSLSCAASAHTFVTNAMGWYRQAPGKERELVAAISRSGGHTYYADSVKGRFTISRDNAKNTVYLQMNSLKPEDTAVYYCAKTRGPRTLYDYWGQGTQVTVSS”, which “polyreactivity (PSR sort gate)” value is on record?
**A.** high polyreactivity

**Q.** For “QVQLVESGGGLVQAGGSLSLSCAASASTFRYYTMGWYRQAPGKERELVAAISWTGGGTYYADSVKGRFTISRDNAKNTVYLQMNSLKPEDTAVYYCAASYYYELFRFDYWGQGTQVTVSS”, which “polyreactivity (PSR sort gate)” value is on record?
**A.** high polyreactivity

**Q.** For “QVQLVESGGGLVQAGGSLSLSCAASGFIFDYYTMGWYRQAPGKEREFVAAINRRGDITYYADSVKGRFTISRDNAKNTVYLQMNSLKPEDTAVYSCAATLTWSSRYEYGYWGQGTQVTVSS”, which “polyreactivity (PSR sort gate)” value is on record?
**A.** low polyreactivity

**Q.** With “QVQLVESGGGLVQAGGSLSLSCAASGFTITSYAMGWYRQAPGKERELVAAINSGGSTNYADSVKGRFTISRDNAKNTVYLQMNSLIPEDNAVYYCAAKRRSYRITYVGVGYKYGYWGLGTQVTVSS” as the sequence, how does the “polyreactivity (PSR sort gate)” value read?
**A.** high polyreactivity

**Q.** For “QVQLVESGGGLVQAGGSLSLSCAASGGIFAYNAMGWYRQAHGKEREWVATISSGVSTNYADSVKGRFTISRDNAKNTVYLQMNSLKPEDTAVYYCAAAIFITGYGSYGYWGQGTQVTVAS”, which “polyreactivity (PSR sort gate)” value is on record?
**A.** low polyreactivity

**Q.** For “QVQLVESGGGLVQAGGSLSLSCAASGIIIYEYAMGWYRQAPGKEMELVAAISNGGSTYYADSVKGRFTISRDNAKNTVYLQMNSLKPEDTAVYYCAARGYFDALFDYWGQGTQVTVSS”, which “polyreactivity (PSR sort gate)” value is on record?
**A.** low polyreactivity

**Q.** For “QVQLVESGGGLVQAGGSLSLSCAASGITFDYYAMGWYRQAPGKERELVAAISGRGTSTYYADSVKGRFTLSRDNAKNTVYLQLNSLKPEDTAVYYCAADPAAQREQSFLCRRGPGYDYWGQGTQVTVSS”, which “polyreactivity (PSR sort gate)” value is on record?
**A.** low polyreactivity

**Q.** With “QVQLVESGGGLVQAGGSLSLSCAASGITFYGYAMGWYRQAHGKERELVATIRRSTGSTYYADSVKGRFTISRDNAMNTVYLQMNSLKPEDTAVYYCATRVWFPITSYDYWGQGTKVTVSS” as the sequence, how does the “polyreactivity (PSR sort gate)” value read?
**A.** low polyreactivity

**Q.** Which “polyreactivity (PSR sort gate)” value does the source give for “QVQLVESGGGLVQAGGSLSLSCAASGLTIYLYAKGWYRQPPGNERELVAAISRSGGSTYYADSVKGRFTISRDNAKNTVYLQMNSLKPEDTAVYYCAAVSYYPEIRKYYYWGQGTQVTVSS” here?
**A.** high polyreactivity

**Q.** With “QVQLVESGGGLVQAGGSLSLSCAASGNIFTIYAMGWYRKAPGKERELVARITWGGGNTYYADSVKGRFTISRDNAKNTVYLQMNSLKPEDSAVYYCNAVGPYDYRYGKYDYWGLGTQVTVSS” as the sequence, how does the “polyreactivity (PSR sort gate)” value read?
**A.** low polyreactivity
